The chains are these.
B1: BCL2L13 (parent)
chain: QSLDQEILLKVKTEIEEELKSLDK

Experimental findings from the supplement of paper PMC10567573 are described below.
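Note: lentivirally expressed fusions sorted by FACS into six bins by GFP to DsRed ratio, PSI derived from sequencing read proportions per bin multiplied by bin number.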

The variants in the data set derive from B1. The experiment in a line: protein stability index of a GFP-peptide fusion (GPS, HEK-293T) (PSI 1-6); higher = more stable. Conditions: c terminus: a fixed tail appended.
With QSLDQEILLKVKTVIEEELKSLDK [E14V], the protein stability index stood at 3.48.
Then QSLDQEILLKVKTKIEEELKSLDK [E14K], with 4.15; and QSLDQEILLKVKTPIEEELKSLDK [E14P], with 4.31.
QSLDQEILLKVKTSIEEELKSLDK [E14S]: the protein stability index amounted to 4.99.
Then QSLDQEILLKVKTCIEEELKSLDK [E14C], with 4.03; and QSLDQEILLKVKTGIEEELKSLDK [E14G], with 5.05; and VSLDQEILLKVKTEIEEELKSLDK [Q1V], with 3.97.
With TSLDQEILLKVKTEIEEELKSLDK [Q1T], the protein stability index was found to be 4.6.
Then DSLDQEILLKVKTEIEEELKSLDK [Q1D], with 4.78; and QYLDQEILLKVKTEIEEELKSLDK [S2Y], with 4; and QHLDQEILLKVKTEIEEELKSLDK [S2H], with 4.75.
For QRLDQEILLKVKTEIEEELKSLDK [S2R], the protein stability index was found to be 4.49.
With QSLDQEILLSVKTEIEEELKSLDK [K10S], the protein stability index is 5.01.
Under QSLDQEILLFVKTEIEEELKSLDK [K10F] stands 3.67.
Then QSLDQEILLYVKTEIEEELKSLDK [K10Y], with 3.85; and QSLDQEILLPVKTEIEEELKSLDK [K10P], with 5.4.
Under QSLDQEILLCVKTEIEEELKSLDK [K10C] stands 4.16; under QSLDQEILLKVKTEIEEELKSLDN [K24N], 5.04.
For the variant QSLDQEILLKVKTEIEEELKSLDR [K24R], the protein stability index is 4.53.
In the case of QSLDQEILLKVKTEIEEELKSLDS [K24S], the protein stability index is 4.9.
Under QSLDQEILLKVKPEIEEELKSLDK [T13P] stands 5.34; under QSLDQEILLKVKGEIEEELKSLDK [T13G], 4.06.
Then QSLDQEILLKVKREIEEELKSLDK [T13R], with 4.96.
Under QSLDQEILLKVKWEIEEELKSLDK [T13W] stands 3.48; under QSLDQEILLKVKQEIEEELKSLDK [T13Q], 3.67; under QSLDQEILLKVKTEIEGELKSLDK [E17G], 4.93.
As to QSLDQEILLKVKTEIEMELKSLDK [E17M], the protein stability index was 4.08.
Regarding QSLDQEILLKVKTEIESELKSLDK [E17S], the protein stability index was 4.81.
Under QSLDQEILLKVKTEIEKELKSLDK [E17K] stands 4.41.
Under QSLDQEILLKVKTEIECELKSLDK [E17C] stands 3.87; under QSLDQEILLKVKTEIEPELKSLDK [E17P], 4.95; under QSDDQEILLKVKTEIEEELKSLDK [L3D], 5.72.
As for QSKDQEILLKVKTEIEEELKSLDK [L3K], the protein stability index worked out at 4.88.
For the variant QSYDQEILLKVKTEIEEELKSLDK [L3Y], the protein stability index came to 5.07.
Turning to QSSDQEILLKVKTEIEEELKSLDK [L3S], the protein stability index was determined as 5.31.
Then QSLDQEILLKVITEIEEELKSLDK [K12I], with 2.6; and QSLDQEILLKVSTEIEEELKSLDK [K12S], with 4.61.
Under QSLDQEILLKVMTEIEEELKSLDK [K12M] stands 1.81.
Under QSLDQEILLKVCTEIEEELKSLDK [K12C] stands 4.43; under QSLDQEILLKVVTEIEEELKSLDK [K12V], 4.1.
As for QSLDQEILLKVKTEIEEELESLDK [K20E], the protein stability index amounted to 5.67.
Then QSLDQEILLKVKTEIEEELFSLDK [K20F], with 4.2; and QSLDQEILLKVKTEIEEELSSLDK [K20S], with 5.33; and QSLDQEILLKVKTEIEEELGSLDK [K20G], with 5.03.
Under QSLDQEILLKVKTEIEEELLSLDK [K20L] stands 4.56.
Then QSLDQEILLKVKTEIEEELISLDK [K20I], with 4.56; and QSLDQEILLKVKTEIEEELHSLDK [K20H], with 4.48.
With QSLDQEILLKVKTEIEEELNSLDK [K20N], the protein stability index amounted to 5.17.
Then QSLDQEILLKQKTEIEEELKSLDK [V11Q], with 5.54; and QSLDQEILLKIKTEIEEELKSLDK [V11I], with 4.19; and QSLDQEILLKMKTEIEEELKSLDK [V11M], with 4.95.
For QSLDQEILLKFKTEIEEELKSLDK [V11F], the protein stability index was 4.83.
Under QSLDQEILLKAKTEIEEELKSLDK [V11A] stands 5.53; under QSLRQEILLKVKTEIEEELKSLDK [D4R], 3.63; under QSLDQEILLKVKTEIEEHLKSLDK [E18H], 4.05.
Then QSLDQEILLKVKTEIEEWLKSLDK [E18W], with 2.8.
Under QSLDQEILLKVKTEIEEKLKSLDK [E18K] stands 3.74.
As for QSLDQEICLKVKTEIEEELKSLDK [L8C], the protein stability index came out at 5.55.
Under QSLDQEIPLKVKTEIEEELKSLDK [L8P] stands 5.17; under QSLDQEILLKVKTEIEEELKSLEK [D23E], 4.29; under QSLDQEILLKVKTEIEEELKSLRK [D23R], 3.78.
Under QSLDQEILLKVKTEIEEELKSLHK [D23H] stands 3.7.
Under QSLDQEPLLKVKTEIEEELKSLDK [I7P] stands 5.83; under QSLDQEELLKVKTEIEEELKSLDK [I7E], 5.63; under QSLDQERLLKVKTEIEEELKSLDK [I7R], 5.61.
QSLDQEQLLKVKTEIEEELKSLDK [I7Q]: the protein stability index was 5.12.
As for QSLDQEILQKVKTEIEEELKSLDK [L9Q], the protein stability index amounted to 5.37.
Consider QSLDQEILMKVKTEIEEELKSLDK [L9M], for which the protein stability index is 4.49.
Then QSLDQEILYKVKTEIEEELKSLDK [L9Y], with 4.45.
Under QSLDQEILLKVKTEIEEELKHLDK [S21H] stands 4.44; under QSLDQEILLKVKTEIEEELKKLDK [S21K], 4.83.
Under QSLDQEILLKVKTEIEEELKCLDK [S21C] stands 4.98; under QSLDQEILLKVKTEIEEELKALDK [S21A], 4.83; under QSLDQEILLKVKTEIEEELKILDK [S21I], 4.77.
For QSLDQEILLKVKTEIEEELKPLDK [S21P], the protein stability index came to 4.97.
Under QSLDQEILLKVKTEIEEELKSEDK [L22E] stands 4.58; under QSLDQEILLKVKTEIEEELKSMDK [L22M], 5.12; under QSLDQEILLKVKTEIEEELKSRDK [L22R], 4.67.
Under QSLDQPILLKVKTEIEEELKSLDK [E6P] stands 5.35; under QSLDQFILLKVKTEIEEELKSLDK [E6F], 3.51; under QSLDQSILLKVKTEIEEELKSLDK [E6S], 4.79.
Under QSLDQQILLKVKTEIEEELKSLDK [E6Q] stands 4.56; under QSLDQEILLKVKTEICEELKSLDK [E16C], 3.97.
On to QSLDQEILLKVKTEIKEELKSLDK [E16K], for which the protein stability index turned out to be 4.76.
Take QSLDQEILLKVKTEIWEELKSLDK [E16W]: the protein stability index was 3.66.
Then QSLDQEILLKVKTEILEELKSLDK [E16L], with 3.23; and QSLDQEILLKVKTEISEELKSLDK [E16S], with 4.93.
Then QSLDQEILLKVKTEIHEELKSLDK [E16H], with 4.4; and QSLDQEILLKVKTEITEELKSLDK [E16T], with 4.72.
Regarding QSLDNEILLKVKTEIEEELKSLDK [Q5N], the protein stability index came to 4.61.
Under QSLDGEILLKVKTEIEEELKSLDK [Q5G] stands 4.95; under QSLDQEILLKVKTEIEEEQKSLDK [L19Q], 5.49.
Under QSLDQEILLKVKTEIEEEAKSLDK [L19A] stands 5.68.
Then QSLDQEILLKVKTEIEEEMKSLDK [L19M], with 5.4.
